From the supplement of paper PMC9170038

Test system: MS2 coat protein
Test: apparent KD of MS2 coat protein; higher = weaker reporter binding
Conditions: Eterna round: R107
In short: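 SNAP-549-labelled MS2 coat protein was titrated onto designed RNA switches that had been transcribed on-chip from Illumina sequencing clusters. Amounts doubled from 0.7 or 1.5 nM to 3 µM in 100 mM Tris-HCl pH 7.5, 80 mM KCl, 4 mM MgCl2, with constant ligand or without. Apparent KD is the median per design of normalised cluster binding-curve fits.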

[1] = input ligand: theophylline 20 uM
[2] = input ligand: tryptophan 2.4 mM
[3] = input ligand: theophylline 2 mM

Sequence	apparent KD of MS2 coat protein (input ligand: arginine 13.2 mM)	apparent KD of MS2 coat protein [1]	apparent KD of MS2 coat protein [2]	apparent KD of MS2 coat protein [3]	apparent KD of MS2 coat protein (input ligand: none)
ACAUGAGGAUCACCCAUGUCACGGCACGAUACCAGCUGAUCCGGUGGCCCUUGGCAGCGUCACGUUUGGUCCCGCGGAUGACACG [klmmullin]	29.4 nM	89.6 nM	65.5 nM		
UAUCGAGGUACAUGAGGAUCACCCAUGUAUCGAGGACCGGUACGGCCGCCACUCGAUAAUGGCGGAUCGUUAGUCCUCUUCGAUA [Tryp A Ex 4b]		14 nM		12.7 nM	
GCACCAGGUACGGAUACCAGCUGCCAGAGAUACAUGAGGAUCACCCAUGUGACCUGAUUUAGCCCUUGGCAGCUGUACCUGGUGC [SSThB NP+V+V2 #2 Same Structure]	178 nM	472 nM	680 nM		
ACGCUGAUUGAUUACAAUCAGCGAAAAGAUACCAGCCUGGAUAUCGGCCCUUGGCAGCUUAAACCUGAGGAUCACCCUGGUAAAA [TheoAS 13 #MS2Right #BothOrNeither #AlternativeMS2]	100 nM	126 nM	147 nM	72.9 nM	93.6 nM
AUAUUUAACGGAAGGAGCGGGAAAUAAUCAUGAUGACAUGAGGAUCACCCAUGUCUUAAAACCCAGGUAGGUCGCCGAAUAAUAA [Same State - Arginine B]	12.1 nM	14.5 nM	11.7 nM	13 nM	11.1 nM
ACUCGGUGUUUGUUGCUCCGAGUGUAUGAUACCAGUCAGUUUUAUGGCCCUUGGCAGCAUAGGACAUGAGGAUCACCCAUGUGUU [#01 SameState-TheophyllineA]	32.9 nM	49 nM	50.8 nM	33.8 nM	44.9 nM
CUCCCGUGAGCGGCCGCCACUGGAGGCUUUGCGCGACAUGAGGAUCACCCAUGUGUGCCCGGCGUUAGGACCGGGUUCGCGUGAG [#1 Same State - Tryptophan B Attempt #16 (HarryS)]	8.8 nM	13.9 nM	11.2 nM	11.2 nM	12.3 nM
GAAUAAAGUAGAACACAAGACUCCUGAGAAGGAGCGCAGUCAACUGCAGGUAGGUCGCUCAGGAACACAUGAGGAUCACCCAUGU [Disoonlate]	16.9 nM	30.4 nM	23.9 nM	32.3 nM	26.6 nM
UACAAACAUGAGGAUCACCCAUGUAGUGAUACCAGCAUAACAGAUUGCCCUUGGCAGCACCGGUUUGUACUCAAACGAAGUACGG [theeternabot_sameState_MS2_Theo_A_36]	56 nM	86.2 nM	52.9 nM		
CCUUAAUAUGGAAGGAGCGCGCUAACAUGAGGAUCACCCAUGUAAAGGGUUUUAGGCUUAGCGCAGGUAGGUCGCCGUAAGAACC [#09 Exclusion - Arginine B]	288 nM	266 nM	252 nM	327 nM	249 nM
GUCGGAGUCGGAAGGAGCGACAUGAGGAUCACCCAUGUCUCCCGUUAUGGGAGUUCCUUAGGUCAGGUAGGUCGCCGACUCCGAC [#1 Exclusion - Arginine B Attempt #24 (Inspired by Omei)]	104 nM	202 nM	240 nM	234 nM	190 nM
CGAACAAAACUAAAUAAACAACUGGGUGAUACCAGUACAUGUGCGUACCCUUGGCAGCAUCCGGCCACAUGAGGAUCACCCAUGU [Ridiansoer]	35.4 nM	98.8 nM	40.9 nM		
UGUAACAUGAGGAUCACCCAUGUAAGUGAUACCAGAUAAGUAGUAGUCCCUUGGCAGCAUAUUGGGAAAGUGUAUAGUGUAUAUG [Same State - Theophylline A (Freestyle 4)]	48.9 nM	72.3 nM	58.4 nM		
AGCGACAUGAGGAUCACCCAUGUACAUUCCCGAGGACCGGUACGGCCGCCACUCGAUGGAAGUGGUAGCAGCUUGGAUGGGCCUA [theeternabot_sameState_MS2_Trp_A_23]	14.5 nM	20 nM		17.8 nM	
UGCCUAGACGUGGAUUACCCGUGUACCGAAGGAGCGCCCGAAAGGGCAGGUAGGUCGCGGAGGACAUGAGGAUCACCCAUGUUUA	31.9 nM	151 nM	175 nM	431 nM	201 nM
GCCGCGGCCGCGAUACACAUGGGUAUGUAACGAGGACCGGUACGGCCGCCACUCGAGAUAAUGUACAUGAGGAUCACCCAUGUAC [Exclusion Tryp A GF12]	10.3 nM	15.1 nM		12.8 nM	
UGUUUUGUGAUGGAUACCAGCAGAGAAAACGUUUAUCCUAACAUGAGGAUCACCCAUGUAUGCCCUUGGCAGCUGUUGUGGGAUA [8.R]	27.2 nM	43.9 nM	27.9 nM		

Sequence	apparent KD of MS2 coat protein (input ligand: arginine 13.2 mM)	apparent KD of MS2 coat protein [1]	apparent KD of MS2 coat protein [2]	apparent KD of MS2 coat protein [3]	apparent KD of MS2 coat protein (input ligand: none)
CAGUCAGUCAGUCAAUGAGUGAGCCAUGAAGGAGCGUGGGAAACCACAGGUAGGUCGCAUGGGAAACAUGAGGAUCACCCAUGUU [SSArg A #2]	27.5 nM	36.9 nM	28.2 nM	36.2 nM	25.5 nM
AAUAAUAAGGCGGCCGCCACUAAACAUGAGGAUCACCCAUGUCUCGAGGGCUUGCGUUUGGGAAGUAGGACCGGGCCAAUAAUAA [Exclusion - Tryptophan B (Freestyle 6)]	12.6 nM	18.8 nM	16.4 nM	20.4 nM	17.9 nM
UUCUACGACGAUCUGGGAAAACCAGAUCGACGAGGACCGGUACGGCCGCCACUCGUGUUUCUUUAACAUGAGGAUCACCCAUGUA [#12 Tryptophan A Same State]	23.6 nM	28 nM		27.8 nM	
ACCAUGUAAUCAGAUACCAGACAUCUUUUAAAUCAUAUUACAUGAGGAUCACCCAUGUUGGUCCCUUGGCAGCUGAAAUAUUUUU [JR_Nu_SSTheophyB_Sub026]	110 nM	212 nM	303 nM		
UCGUGUAAAACGGAUACCAGUGAGAAGGAUACAUGAGGAUCACCCAUGUGAGUUGAUCCACACCCUUGGCAGCUGUAUAUAUCUA [ozomullin]	105 nM	185 nM	122 nM		
UGGUUUGUGAUGGAUACCAGCAGAGAAAACGUUUAUCCUAACAUGAGGAUCACCCAUGUAUGCCCUUGGCAGCUGUUGUGGGCUG [8.T]	31.9 nM	49.5 nM	30.4 nM		
UAACAUGAGGAUCACCCAUGUUUGAAGGAACGAGGACCGGUACGGCCGCCACUCGACGAGUGGAUGAGAAGUGGGAUAGUGUGCU [Same State Trp A GF7]	15.3 nM	18.2 nM		14.3 nM	
CUAUAUGGAAACAUAUAGACGCAAAAGCGACGAGGACCGGUACGGCCGCCACUCGAAGAGUGGUGGACAUGAGGAUCACCCAUGU [Design 3 MOD]	38.3 nM	73.1 nM	58.5 nM	58.9 nM	54.6 nM
GGUUACUCUACGGCCGCCACUGUCAUGUAAAGAUACCUGUACAUGACAUGAGGAUCACCCAUGUGCAGGACCGGGUAGUGUAACC [Tryptophan B 18]	91.3 nM	177 nM		201 nM	
UUCAGCUAGUCGGCCGCCACUACUUGAGGAUCACCCAGGUAAUCCUAACACUGCUUCGGCAGUGGUAGGACCGGGACUAGCUGAG	24 nM	21.6 nM	103 nM	24.5 nM	19 nM
AAAUAAAUACAUGAGGAUCACCCAUGUGAAGGAGCGCGCGUUAGCGCAGGUAGGUCGCACAUGAAAGGGAAGCGAAAGAAAUAAU [MAT - Exclusion Arginine A - Mod of Eli - D16]	24.9 nM	28.6 nM	22.2 nM	24.3 nM	19 nM
UGGUACAUGGCGGCCGCCACUGGGUUGAAUACCUGAGGAUCACCCUGGUAAAACGCGAAAGCGACUAGGACCGGGUCAUGUACCU	98.8 nM	162 nM	44.5 nM	385 nM	148 nM
AGAUCUUUCGAAAGAAGGAUAAUGGCUGAUACCAGAGACGAAAGUCUCCCUUGGCAGCAGUGCCAACAUGAGGAUCACCCAUGUA [Theophylline A 14]	110 nM	164 nM	178 nM		
UGUAUGUGAUCUGAUACCAGCGUUGAUAACCUGAGGAUCACCCUGGUAAGGCGAAAGCCGCGCCCUUGGCAGCAGAUCGCAUACU	169 nM	83.9 nM	260 nM	23.3 nM	237 nM
GUCCUCGACACGGCCGCCACUGGCUCGCCUGUUGGCGCCGACCCACAUGAGGAUCACCCAUGUUCCAGGACCGGGUGUCACAGCA [theeternabot_sameState_MS2_Trp_B_42]	64.6 nM	312 nM		311 nM	
AUUCAUGGAAACAUGACAUACAUAACCGGUCGAGGACCGGUACGGCCGCCACUCGGUUGGUGGCACAUGAGGAUCACCCAUGUUA [SS Tryp A #10]	21.7 nM	39.3 nM		28.5 nM	
AACGAUUAAUCGGCCGCCACUCACAUGAGGAUCACCCAUGUUGUUCUUCCAGGUGGUUCUGUUCCGAGGACCGGGAUUCCGUCCU [theeternabot_exclusion_MS2_Trp_B_42]	41.8 nM	70.6 nM		70.7 nM	
